Experiments:
[1] = system: CAT reporter plasmid containing five GAL4 binding sites and an SV40 enhancer region (pG5SV-BCAT); assay: GAL4 fusion / CAT reporter gene transcription assay in COS cells; type: cell-based
Text: To examine the potential effect of Sp110 on gene transcription, a eukaryotic expression plasmid encoding Sp110 fused to the DNA-binding domain of GAL4 (pBXG-Sp1110) was co-transfected with a CAT reporter plasmid containing five GAL4 binding sites and an SV40 enhancer region (pG5SV-BCAT) into COS cells.
To identify the portion of Sp110 that enhances reporter gene expression, DNA segments encoding fragments of Sp110 fused to GAL4 were expressed with a reporter gene in COS cells. […] The mechanism by which Sp110 enhances PPARα-mediated gene transcription can be investigated, as described below, by identifying proteins that interact with the activation domain and SAND domain.

CBP = assay: Mammalian two-hybrid assay with GAL4-CBP in COS cells; type: cell-based; details: VP16 fusions, compared with VP16 alone
Text: PPARα interacted with the N-terminal portion of CBP/p300 between amino acid residues 39 and 221. To determine whether Sp110 also interacts with CBP, the mammalian two-hybrid system was used as an assay. In this assay, the GAL4 DNA-binding domain (GAL4) fused to CBP (GAL4-CBP) and a luciferase reporter gene containing GAL4 response elements were expressed in COS cells with either Sp110 fused to the herpes simplex virus VP16 activation domain (VP16-Sp110) or VP16 alone. […] Thus, Sp110 interacts, either directly or indirectly, with CBP. The site of functional interaction between Sp110 and CBP was mapped more specifically to amino acid residues 271–720 of CBP. The Sp110-CBP functional interaction domain is therefore distinct from the PPARα-CBP interaction domain.
To identify the portion of Sp110 that functionally interacts with CBP, the N-terminal or C-terminal portions of Sp110 were fused to VP16 and expressed in COS cells together with GAL4CBP and a reporter gene. […] As described below, studies can be carried out to further delineate the domains that mediate functional interaction between Sp110 and CBP and to test whether Sp110 interacts with CBP directly.

HL60 cells = assay: Sp110 mRNA level by RNA blot after IFN-γ treatment; type: cell-based, human; details: 200 units/ml, 48 hours
Description: To investigate the expression of Sp110 in cells of the monocyte/granulocyte lineage, RNA was prepared from the myeloid precursor cell lines HL60 and NB4 (HL60 cells are available from the American Type Culture Collection, Manassas, Va.). RNA was extracted from these cell lines using the guanidinium isothiocyanate-cesium chloride method (Sambrook et al., Cold Spring Harbor Laboratory, Cold Spring Harbor, N.Y., 1989). The HL60 cells were maintained in RPMI supplemented with 10% fetal calf serum, L-glutamine (2 mM), penicillin (200 units/ml), and streptomycin (200 mg/ml). RNA was fractionated in formaldehyde-agarose gels (5 μg/lane) and equal loading of RNA was confirmed by staining 28S and 18S ribosomal RNA with ethidium bromide. RNA was transferred to nylon membranes and the membranes were hybridized with the radiolabeled XbaI restriction fragment of the Sp110 cDNA or the EcoRI/BamHI restriction fragment of the cDNA encoding human Sp100 (Bloch et al., J. Biol. Chem. 46:29198–29204, 1996). Membranes were washed and analyzed by autoradiography. Low levels of Sp110 mRNA were detected in both NB4 cells and HL60 cells.
To examine the effect of cellular differentiation on Sp110 mRNA, NB4 cells were treated for 48 hours with all trans retinoic acid (ATRA) (1 μM). […] To examine the effect of IFN-γ treatment on Sp110 mRNA levels, HL60 cells were treated with IFN-γ (200 units/ml) for 48 hours.

PPARγ receptor = assay: PPARγ signal transduction reporter assay; type: cell-based
PPARα = PPARα co-activation reporter assay (PPRE) in COS cells; type: cell-based; details: COS cells co-transfected with PPARα; compared with PPARα expressed alone
Text: Sp110 also acted as a co-activator of PPARα. […] Sp110 may interact with nuclear hormone receptors via an LXXLL domain. To determine whether Sp110 interacts with PPARα via the LULL domain, oligonucleotides and PCR were used to prepare a mutant Sp110 protein (Sp110m) in which two of the three leucine residues were changed, one to valine and one to alanine (LXXVA).

RARα response element = assay: RAR transcriptional co-activation reporter assay; type: cell-based; details: for signal transduction through RARα / expression of the reporter gene: expressed with RARα
Description: Experiments were also performed to determine whether Sp110 could function as a retinoic acid receptor (RAR) transcriptional co-activator. […] The extent of reporter gene activation by Sp110 was similar to that induced by the nuclear body component PML.

Row | signal transduction through the PPARγ receptor (PPARγ receptor) | Molecule | reporter gene expression by fragments of Sp110 fused to GAL4 [1] | GAL4-CBP-induced luciferase reporter gene activity (CBP) | agonist-induced expression of the PPRE reporter gene / activation of the PPARα receptor (PPARα) | signal transduction through RARα / expression of the reporter gene (RARα response element) | other results
1 | – | N-terminal portion: N-terminal portion of Sp110, containing the Sp100-like region, fused to VP16 or GAL4 (protein, left off: large carriers, N-terminal portion of Sp110, containing the Sp100-like region, fused to VP16 or GAL4) MFTMTRAMEEALFQHFMHQKLGIAYAIHKPFPFFEGLLDNSIITKRMYMESLEACRNLIPVSRVVHNILTQLERTFNLSLLVTLFSQINLREYPNLVTIYRSFKRVGASYERQSRDTPILLEAPTGLAEGSSLHTPLALPHHKPPQPSCSPCAPRVSEPGTSSQQSTEILSESPSPSDPVLPLPALIQEGRSTSVTNDKLTSKMNAEEDSEEMPSLLTSTVQVASDNLIP | Neither the N-terminal (Sp100-like domain), nor the C-terminal (PHD/bromodomain) portions of Sp110 increased expression of the reporter gene | did not | – | – | –
2 | – | IFN-γ: interferon (protein, UniProt P01579 24-161, looked up) Interferon gamma: QDPYVKEAENLKKYFNAGHSDVADNGTLFLGILKNWKEESDRKIMQSQIVSFYFKLFKNFKDDQSIQKSVETIKEDMNVKFFNSNKKKRDDFEKLTNYSVTDLNVQRKAIHELIQVMAELSPAAKTGKRKRSQMLFRG | – | – | – | – | Sp110 mRNA level (HL60 cells): marked increase
3 | – | C-terminal portion: C-terminal portion of Sp110, containing the PHD and the bromodomain, fused to VP16 or GAL4 (protein, left off: large carriers, C-terminal portion of Sp110, containing the PHD and the bromodomain, fused to VP16 or GAL4) KRKNSDECEVCCQGGQLLCCGTCPRVFHEDCHIPPVEAKRMLWSCTFCRMKRSSGSQQCHHVSKTLERQMQPQDQLIRDYGEPFQEAMWLDLVKERLITEMYTVAWFVRDMRLMFRNHKTFYKASDFGQVGLDLEAEFEKDLKDVLGFHEANDGGFWTLP | Neither the N-terminal (Sp100-like domain), nor the C-terminal (PHD/bromodomain) portions of Sp110 increased expression of the reporter gene | enhanced | – | – | –
4 | enhanced signal transduction | Sp110: novel 110 kDa polypeptide component of the nuclear body, 689 amino acids, SEQ ID NO:2 (protein, listed as Homo sapiens) MFTMTRAMEEALFQHFMHQKLGIAYAIHKPFPFFEGLLDNSIITKRMYMESLEACRNLIPVSRVVHNILTQLERTFNLSLLVTLFSQINLREYPNLVTIYRSFKRVGASYERQSRDTPILLEAPTGLAEGSSLHTPLALPHHKPPQPSCSPCAPRVSEPGTSSQQSTEILSESPSPSDPVLPLPALIQEGRSTSVTNDKLTSKMNAEEDSEEMPSLLTSTVQVASDNLIPQIRDKEDPQEMPHSPLGSMPEIRDNSPEPNDPEEPQEVSSTPSDKKGKKRKRCIWSTPKRRHKKKSLPRGTASSRHGIQKKLKRVDQVPQKKDDSTCNSTVETRAQKARTECARKSRSEEIIDGTSEMNEGKRSQKTPSTPRRVTQGAASPGHGIQEKLQVVDKVTQRKDDSTWNSEVMMRVQKARTKCARKSRSKEKKKEKDICSSSKRRFQKNIHRRGKPKSDTVDFHCSKLPVTCGEAKGILYKKKMKHGSSVKCIRNEDGTWLTPNEFEVEGKGRNAKNWKRNIRCEGTTLGELLKRKNSDECEVCCQGGQLLCCGTCPRVFHEDCHIPPVEAKRMLWSCTFCRMKRSSGSQQCHHVSKTLERQMQPQDQLIRDYGEPFQEAMWLDLVKERLITEMYTVAWFVRDMRLMFRNHKTFYKASDFGQVGLDLEAEFEKDLKDVLGFHEANDGGFWTLP | – | – | markedly enhanced | enhanced signal transduction | ATRA-induced expression of the reporter gene (RARα response element; COS cells, reporter with three copies of the RARα response element): significantly enhanced
5 | enhanced signal transduction | Sp110m: mutant Sp110 protein in which two of the three LXXLL leucine residues were changed, one to valine and one to alanine (LXXVA) (protein) MFTMTRAMEEALFQHFMHQKLGIAYAIHKPFPFFEGLLDNSIITKRMYMESLEACRNLIPVSRVVHNILTQLERTFNLSLLVTLFSQINLREYPNLVTIYRSFKRVGASYERQSRDTPILLEAPTGLAEGSSLHTPLALPHHKPPQPSCSPCAPRVSEPGTSSQQSTEILSESPSPSDPVLPLPALIQEGRSTSVTNDKLTSKMNAEEDSEEMPSLLTSTVQVASDNLIPQIRDKEDPQEMPHSPLGSMPEIRDNSPEPNDPEEPQEVSSTPSDKKGKKRKRCIWSTPKRRHKKKSLPRGTASSRHGIQKKLKRVDQVPQKKDDSTCNSTVETRAQKARTECARKSRSEEIIDGTSEMNEGKRSQKTPSTPRRVTQGAASPGHGIQEKLQVVDKVTQRKDDSTWNSEVMMRVQKARTKCARKSRSKEKKKEKDICSSSKRRFQKNIHRRGKPKSDTVDFHCSKLPVTCGEAKGILYKKKMKHGSSVKCIRNEDGTWLTPNEFEVEGKGRNAKNWKRNIRCEGTTLGELLKRKNSDECEVCCQGGQLLCCGTCPRVFHEDCHIPPVEAKRMLWSCTFCRMKRSSGSQQCHHVSKTLERQMQPQDQLIRDYGEPFQEAMWLDLVKERLITEMYTVAWFVRDMRLMFRNHKTFYKASDFGQVGLDLEAEFEKDLKDVLGFHEANDGGFWTLP | – | – | less than wild-type Sp110 | also enhanced expression of the reporter gene | –

— patent publication US7087717B2, “Sp110, a polypeptide component of the nuclear body” (The General Hospital Corporation, priority 2000, dated 2006)
